Literature values in paper PMC12394151.

Target: IL-6R (Homo sapiens) (UniProt P08887)
Assay: BLI
Details: cited from earlier work

IL-6R (Homo sapiens), sequence (P08887 20-355): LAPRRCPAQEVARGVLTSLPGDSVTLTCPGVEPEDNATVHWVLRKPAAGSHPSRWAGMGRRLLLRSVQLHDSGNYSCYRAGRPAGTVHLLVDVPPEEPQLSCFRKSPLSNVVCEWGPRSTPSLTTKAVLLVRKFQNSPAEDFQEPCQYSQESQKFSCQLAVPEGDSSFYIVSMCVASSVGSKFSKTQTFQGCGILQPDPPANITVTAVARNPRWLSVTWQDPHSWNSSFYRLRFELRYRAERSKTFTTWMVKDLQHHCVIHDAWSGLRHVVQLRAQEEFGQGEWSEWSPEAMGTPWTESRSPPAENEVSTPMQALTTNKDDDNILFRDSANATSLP

Tocilizumab
Kd: 38.8 nM
